Measurements published in US20200231684A1 (published 2020).

B1: antibody 76E10 (antibody, V domains shown)
VH: QVQLKESGPVLVAPSQSLSITCTVSGFSLTNYGVHWVRQPPGKGLEWLGVIWPVGSTNYNSALMSRLSIHKDNSKSQVFLRMNSLQTDDTAIYYCAKMDWDDFFDYWGQGTTLTVSS
VL: DIVMTQSQKFMSATVGGRVNITCKASQNVGRAVAWYQQKPGQSPKLLTHSASNRYTGVPDRFTGSGSGTDFTLTITNMQSEDLADYFCQQYSSYPLTFGAGTKLDLK
notes: Mouse monoclonal from hybridoma; also called 76E10E8
B2: antibody 81A1 (antibody, V domains shown)
VH: QVQLKESGPGLVAPSQSLFITCTVSGFSLSSYEINWVRQVPGKGLEWLGVIWTGITTNYNSALISRLSISKDNSKSLVFLKMNSLQTDDTAIYYCARGTGTGFYYAMDYWGQGTSVTVSS
VL: DIQMTQTTSSLSASLGDRVTISCRASQDIYKYLNWYQQKPDGTLKLLIYYTSGLHSGVPSRFSGSGSGTDFSLTISNLEPEDIATYFCQQDSKFPWTFGGDTKLEIK
notes: Mouse monoclonal from hybridoma; also called 81A1D1; Mouse 81A1

Key:
[1] = molecular target: cynomolgus IL-36R on BaF/3 cells (cynomolgus, UniProt A0A2K5WSK9 20-558); experiment: cell-based or functional assay
[2] = molecular target: T1, human IL-36R on cells (human, UniProt Q9HB29 20-575); experiment: cell-based or functional assay
T1 sequence (looked up): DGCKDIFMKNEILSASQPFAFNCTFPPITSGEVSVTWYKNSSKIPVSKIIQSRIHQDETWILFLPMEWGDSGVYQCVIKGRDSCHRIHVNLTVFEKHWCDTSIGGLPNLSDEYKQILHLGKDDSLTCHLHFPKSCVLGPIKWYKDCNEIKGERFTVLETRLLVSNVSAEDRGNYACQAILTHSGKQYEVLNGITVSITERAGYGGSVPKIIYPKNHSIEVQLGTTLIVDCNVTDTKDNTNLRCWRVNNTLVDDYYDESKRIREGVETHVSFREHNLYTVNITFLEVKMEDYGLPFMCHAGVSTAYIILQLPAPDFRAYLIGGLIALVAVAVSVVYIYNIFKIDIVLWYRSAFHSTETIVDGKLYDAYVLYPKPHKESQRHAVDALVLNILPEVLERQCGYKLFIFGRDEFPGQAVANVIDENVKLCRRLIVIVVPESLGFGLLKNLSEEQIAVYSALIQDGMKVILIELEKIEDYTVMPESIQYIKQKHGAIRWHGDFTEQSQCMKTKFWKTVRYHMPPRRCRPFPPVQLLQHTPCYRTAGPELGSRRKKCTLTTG

[3] = molecular target: T2, recombinant human IL-36R (ECD) (human, UniProt Q9HB29 20-332); experiment: SPR (ProteOn), single IL-36R surface coat concentration
T2 construct: range 20-332; also called IL-1RL2; IL-1Rrp2
T2 sequence (looked up): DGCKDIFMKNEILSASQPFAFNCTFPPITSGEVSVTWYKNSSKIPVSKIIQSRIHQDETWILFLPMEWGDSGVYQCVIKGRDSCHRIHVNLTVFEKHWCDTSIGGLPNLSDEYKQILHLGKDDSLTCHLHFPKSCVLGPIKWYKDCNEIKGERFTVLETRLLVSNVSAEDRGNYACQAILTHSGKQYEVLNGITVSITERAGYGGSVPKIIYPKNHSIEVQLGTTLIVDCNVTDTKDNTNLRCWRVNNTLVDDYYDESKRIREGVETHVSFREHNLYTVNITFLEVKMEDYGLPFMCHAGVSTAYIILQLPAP
Method: A) Kinetics and binding affinities of anti-IL-36R antibodies binding to recombinant human IL-36R were measured using the Proteon (Bio-Rad, Hercules, Calif.) using material generated from hybridoma following single column purification. […] Binding of the chimeric anti-IL36R IgGs is equivalent to the respective mouse leads.

[4] = molecular target: T1, human IL-36R on cells; experiment: flow cytometry, HEK293 cells transfected with full-length human IL-36R
Method: HEK293 cells transfected with full-length human IL-36R or NCI/ADR-RES cells were passaged for 24 hours prior to staining. Cells were removed from flasks by rinsing with 10 ml of 5 mM EDTA in PBS, and then incubated at 37° C. for 10 min with an additional 10 ml of 5 mM EDTA and 2.5 ml of Accumax to declump/disperse cells. Antibodies were then diluted to specified concentrations in PBS+2% BSA, and cells incubated for 20 min at room temperature. Excess antibody was then washed by adding 200 μl of PBS and then centrifuged. Secondary reagent was then added at 50 μl per well and cells are incubated for 15 min at room temperature and then washed as above. Cells were resuspended in 200 μl PBS and analyzed by flow cytometry.

[5] = molecular target: T3, mouse IL-36R (mouse, UniProt Q9ERS7 22-338); experiment: BLI (Fortebio Octet), antibody injected over antigen surface
T3 sequence (looked up): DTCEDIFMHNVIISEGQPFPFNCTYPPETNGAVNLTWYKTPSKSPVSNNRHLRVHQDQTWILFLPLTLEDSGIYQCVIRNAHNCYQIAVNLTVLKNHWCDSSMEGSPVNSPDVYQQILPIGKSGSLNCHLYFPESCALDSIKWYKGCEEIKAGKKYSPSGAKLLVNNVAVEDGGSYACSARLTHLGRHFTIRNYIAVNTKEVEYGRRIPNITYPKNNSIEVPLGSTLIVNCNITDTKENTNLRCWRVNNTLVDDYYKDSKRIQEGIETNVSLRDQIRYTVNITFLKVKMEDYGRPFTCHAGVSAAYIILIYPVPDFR
Method: (§1) B) Molecular selectivity over mouse IL-36R and human IL-1R1 The mouse and chimeric anti-IL-36R antibodies were also injected over either a mouse IL-36R or a human IL-1R1 surface at a concentration of 100 nM. The binding signal to mouse IL-36R and to human IL-1R1 for these antibodies measured using the Fortebio Octet (Fortebio, Menlo Park, Calif.) is zero, which indicates these antibodies selectively bind to human IL-36R.

[6] = molecular target: T4, human IL-1R1 (human, UniProt P14778 18-336, limits assumed); experiment: as above
T4 construct: also called IL-1RI
T4 sequence (looked up): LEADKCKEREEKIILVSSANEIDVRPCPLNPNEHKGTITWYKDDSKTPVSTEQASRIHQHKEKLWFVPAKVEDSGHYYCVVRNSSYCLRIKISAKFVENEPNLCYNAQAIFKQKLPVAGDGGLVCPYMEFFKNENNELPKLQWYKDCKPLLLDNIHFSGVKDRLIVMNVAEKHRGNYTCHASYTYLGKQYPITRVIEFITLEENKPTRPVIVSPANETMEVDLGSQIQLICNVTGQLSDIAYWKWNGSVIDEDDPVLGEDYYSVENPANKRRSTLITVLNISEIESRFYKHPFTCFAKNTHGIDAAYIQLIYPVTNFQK
Method: as §1

[7] = molecular target: T2, recombinant human IL-36R (ECD); experiment: SPR (ProteOn), recombinant human IL-36R at 7 surface densities, global fit
Method: A) Kinetics and binding affinities of anti-IL-36R antibodies binding to recombinant human IL-36R were measured using the Proteon (Bio-Rad, Hercules, Calif.) using material generated from hybridoma following single column purification. […] The binding affinities of the mouse antibodies to human IL-36R run at 7 different surface densities (globally fit) is shown in Table 1. Binding of the chimeric anti-IL36R IgGs is equivalent to the respective mouse leads.

cynomolgus IL-36R on BaF/3 cells, sequence (A0A2K5WSK9 entry or part of it): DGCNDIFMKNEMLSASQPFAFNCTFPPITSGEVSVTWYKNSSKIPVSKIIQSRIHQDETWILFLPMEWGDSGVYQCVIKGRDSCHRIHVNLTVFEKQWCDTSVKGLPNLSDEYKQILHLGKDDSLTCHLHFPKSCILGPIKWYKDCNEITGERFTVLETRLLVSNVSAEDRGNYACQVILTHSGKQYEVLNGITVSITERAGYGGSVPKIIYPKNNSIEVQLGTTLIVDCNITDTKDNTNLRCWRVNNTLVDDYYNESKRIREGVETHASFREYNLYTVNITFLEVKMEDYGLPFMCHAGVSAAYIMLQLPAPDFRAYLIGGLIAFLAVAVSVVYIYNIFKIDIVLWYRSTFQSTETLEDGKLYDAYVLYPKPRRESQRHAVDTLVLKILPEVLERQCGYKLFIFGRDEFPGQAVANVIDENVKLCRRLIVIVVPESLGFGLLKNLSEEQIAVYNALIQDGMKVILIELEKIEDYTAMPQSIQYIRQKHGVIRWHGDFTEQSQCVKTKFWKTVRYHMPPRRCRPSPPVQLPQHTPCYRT

Row | Binder | IC90, pNFκB, BaF/3 cynomolgus IL-36R cells, trun-IL-36a [1] | IC90, pNFκB, BaF/3 cynomolgus IL-36R cells, trun-IL-36b [1] | IC90, pNFκB, BaF/3 cynomolgus IL-36R cells, trun-IL-36g [1] | IC90, pNFκB, NCI/ADR-RES cells, trun-IL-36g [2] | Kd [3] | EC50 [4] | binding result [5] | binding result [6] | IC90, GM-CSF release, NCI/ADR-RES cells, trun-IL-36a [2] | IC90, GM-CSF release, NCI/ADR-RES cells, trun-IL-36b [2] | IC90, GM-CSF release, NCI/ADR-RES cells, trun-IL-36g [2] | IC90, IL-6 release, NCI/ADR-RES cells, trun-IL-36a [2] | IC90, IL-6 release, NCI/ADR-RES cells, trun-IL-36b [2] | IC90, IL-6 release, NCI/ADR-RES cells, trun-IL-36g [2] | IC90, IL-8 release, NCI/ADR-RES cells, trun-IL-36a [2] | IC90, IL-8 release, NCI/ADR-RES cells, trun-IL-36b [2] | IC90, IL-8 release, NCI/ADR-RES cells, trun-IL-36g [2] | IC90, pNFκB, NCI/ADR-RES cells, trun-IL-36a [2] | IC90, pNFκB, NCI/ADR-RES cells, trun-IL-36b [2] | Kd [7]
1 | B1 | > 4000 nM | > 333 nM | > 333 nM | 1.9 nM | < 0.1 nM | 0.426 nM | no binding (tested: 100 nM) | no binding (tested: 100 nM) |  |  |  |  |  |  |  |  |  |  |  | 
2 | B2 | 0.6 nM | 0.9 nM | 1 nM | 2.2 nM | < 0.1 nM | 0.28 nM | no binding (tested: 100 nM) | no binding (tested: 100 nM) | 1.2 nM | 1.2 nM | 0.7 nM | 17 nM | 5.3 nM | 0.8 nM | 1.9 nM | 0.5 nM | 0.5 nM | 2.7 nM | 4.2 nM | 0.016 nM
